These results are taken from patent publication US20030096225A1.

In the assay the target is purified recombinant Ep-CAM produced in insect cells (UniProt P16422). In words: SPR (BIAcore), Ep-CAM coupled to CM5 chip, control antibody. A general note: In SPR one partner is held on a chip, and binding of the other changes the refractive index at the surface.
purified recombinant Ep-CAM produced in insect cells, sequence (P16422 24-265 limits assumed): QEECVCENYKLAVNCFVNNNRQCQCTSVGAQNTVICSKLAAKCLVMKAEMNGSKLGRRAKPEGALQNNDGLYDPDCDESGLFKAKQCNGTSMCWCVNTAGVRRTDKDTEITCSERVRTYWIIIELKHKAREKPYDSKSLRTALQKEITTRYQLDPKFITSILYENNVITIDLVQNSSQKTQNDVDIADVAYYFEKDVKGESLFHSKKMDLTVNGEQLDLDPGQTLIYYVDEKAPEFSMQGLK

Turning to murine anti-Ep-CAM antibody 323/A3, the dissociation constant Kd – broadly, the free concentration of one partner at which half of the binding sites on the other are occupied at equilibrium, for simple one-to-one binding – came to 0.5 nM.
